Laboratory results published in patent publication US10030233B2, “Modified P450 reductase with N-terminal deletions and endoplasmic reticulum retention tag” (DE MONTFORT UNIVERSITY, priority 2013, dated 2018).

T1: CYP1A2 (Homo sapiens, UniProt P05177)
T1 construct: A 1563 bp BamHI-XhoI fragment containing the human CYP1A2 gene; made in house; host or cells: Saccharomyces cerevisiae W303B, microsomes
T1 sequence (P05177 1-516): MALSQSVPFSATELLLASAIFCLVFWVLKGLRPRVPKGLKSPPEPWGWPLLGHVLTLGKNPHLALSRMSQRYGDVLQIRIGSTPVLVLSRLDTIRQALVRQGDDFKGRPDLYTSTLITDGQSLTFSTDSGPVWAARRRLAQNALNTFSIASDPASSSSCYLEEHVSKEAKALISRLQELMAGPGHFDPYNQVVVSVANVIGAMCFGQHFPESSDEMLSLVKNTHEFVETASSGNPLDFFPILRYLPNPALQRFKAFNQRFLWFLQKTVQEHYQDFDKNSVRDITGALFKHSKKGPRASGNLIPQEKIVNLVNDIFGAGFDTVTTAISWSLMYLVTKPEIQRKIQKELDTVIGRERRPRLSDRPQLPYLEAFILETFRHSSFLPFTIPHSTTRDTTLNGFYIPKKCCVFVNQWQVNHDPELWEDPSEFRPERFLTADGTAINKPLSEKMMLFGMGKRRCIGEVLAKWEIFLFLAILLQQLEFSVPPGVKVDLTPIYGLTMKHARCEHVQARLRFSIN

B1: hRD: wild-type human P450 reductase, full length, control (protein, listed as Homo sapiens)
chain: MGDSHVDTSSTVSEAVAEEVSLFSMTDMILFSLIVGLLTYWFLFRKKKEEVPEFTKIQTLTSSVRESSFVEKMKKTGRNIIVFYGSQTGTAEEFANRLSKDAHRYGMRGMSADPEEYDLADLSSLPEIDNALVVFCMATYGEGDPTDNAQDFYDWLQETDVDLSGVKFAVFGLGNKTYEHFNAMGKYVDKRLEQLGAQRIFELGLGDDDGNLEEDFITWREQFWPAVCEHFGVEATGEESSIRQYELVVHTDIDAAKVYMGEMGRLKSYENQKPPFDAKNPFLAAVTTNRKLNQGTERHLMHLELDISDSKIRYESGDHVAVYPANDSALVNQLGKILGADLDVVMSLNNLDEESNKKHPFPCPTSYRTALTYYLDITNPPRTNVLYELAQYASEPSEQELLRKMASSSGEGKELYLSWVVEARRHILAILQDCPSLRPPIDHLCELLPRLQARYYSIASSSKVHPNSVHICAVVVEYETKAGRINKGVATNWLRAKEPAGENGGRALVPMFVRKSQFRLPFKATTPVIMVGPGTGVAPFIGFIQERAWLRQQGKEVGETLLYYGCRRSDEDYLYREELAQFHRDGALTQLNVAFSREQSHKVYVQHLLKQDREHLWKLIEGGAHIYVCGDARNMARDVQNTFYDIVAELGAMEHAQAVDYIKKLMTKGRYSLDVWS
B2: ΔN1hRD-HDEL: human P450 reductase lacking N-terminal 24 amino acids, with C-terminal yeast ER retention signal HDEL (protein)
chain: MTDMILFSLIVGLLTYWFLFRKKKEEVPEFTKIQTLTSSVRESSFVEKMKKTGRNIIVFYGSQTGTAEEFANRLSKDAHRYGMRGMSADPEEYDLADLSSLPEIDNALVVFCMATYGEGDPTDNAQDFYDWLQETDVDLSGVKFAVFGLGNKTYEHFNAMGKYVDKRLEQLGAQRIFELGLGDDDGNLEEDFITWREQFWPAVCEHFGVEATGEESSIRQYELVVHTDIDAAKVYMGEMGRLKSYENQKPPFDAKNPFLAAVTTNRKLNQGTERHLMHLELDISDSKIRYESGDHVAVYPANDSALVNQLGKILGADLDVVMSLNNLDEESNKKHPFPCPTSYRTALTYYLDITNPPRTNVLYELAQYASEPSEQELLRKMASSSGEGKELYLSWVVEARRHILAILQDCPSLRPPIDHLCELLPRLQARYYSIASSSKVHPNSVHICAVVVEYETKAGRINKGVATNWLRAKEPAGENGGRALVPMFVRKSQFRLPFKATTPVIMVGPGTGVAPFIGFIQERAWLRQQGKEVGETLLYYGCRRSDEDYLYREELAQFHRDGALTQLNVAFSREQSHKVYVQHLLKQDREHLWKLIEGGAHIYVCGDARNMARDVQNTFYDIVAELGAMEHAQAVDYIKKLMTKGRYSLDVWSHDEL
modifications: delN1hRD-HDEL
notes: human P450 reductase lacking N-terminal 24 amino acids, with C-terminal yeast ER retention signal HDEL
B3: ΔN1hRD-M: human P450 reductase lacking N-terminal 24 amino acids, with C-terminal 12-amino acid c-myc tag; described in WO 2007/129050; gene SEQ ID NO: 5 (protein)
chain: MTDMILFSLIVGLLTYWFLFRKKKEEVPEFTKIQTLTSSVRESSFVEKMKKTGRNIIVFYGSQTGTAEEFANRLSKDAHRYGMRGMSADPEEYDLADLSSLPEIDNALVVFCMATYGEGDPTDNAQDFYDWLQETDVDLSGVKFAVFGLGNKTYEHFNAMGKYVDKRLEQLGAQRIFELGLGDDDGNLEEDFITWREQFWPAVCEHFGVEATGEESSIRQYELVVHTDIDAAKVYMGEMGRLKSYENQKPPFDAKNPFLAAVTTNRKLNQGTERHLMHLELDISDSKIRYESGDHVAVYPANDSALVNQLGKILGADLDVVMSLNNLDEESNKKHPFPCPTSYRTALTYYLDITNPPRTNVLYELAQYASEPSEQELLRKMASSSGEGKELYLSWVVEARRHILAILQDCPSLRPPIDHLCELLPRLQARYYSIASSSKVHPNSVHICAVVVEYETKAGRINKGVATNWLRAKEPAGENGGRALVPMFVRKSQFRLPFKATTPVIMVGPGTGVAPFIGFIQERAWLRQQGKEVGETLLYYGCRRSDEDYLYREELAQFHRDGALTQLNVAFSREQSHKVYVQHLLKQDREHLWKLIEGGAHIYVCGDARNMARDVQNTFYDIVAELGAMEHAQAVDYIKKLMTKGRYSLDVWSSSEQKLISEEDLNGSRL
modifications: delN1hRD-M
B4: ΔN2hRD-HDEL: human P450 reductase lacking the 54-amino acid membrane anchoring region, with C-terminal yeast ER retention signal HDEL (protein)
chain: MTKIQTLTSSVRESSFVEKMKKTGRNIIVFYGSQTGTAEEFANRLSKDAHRYGMRGMSADPEEYDLADLSSLPEIDNALVVFCMATYGEGDPTDNAQDFYDWLQETDVDLSGVKFAVFGLGNKTYEHFNAMGKYVDKRLEQLGAQRIFELGLGDDDGNLEEDFITWREQFWPAVCEHFGVEATGEESSIRQYELVVHTDIDAAKVYMGEMGRLKSYENQKPPFDAKNPFLAAVTTNRKLNQGTERHLMHLELDISDSKIRYESGDHVAVYPANDSALVNQLGKILGADLDVVMSLNNLDEESNKKHPFPCPTSYRTALTYYLDITNPPRTNVLYELAQYASEPSEQELLRKMASSSGEGKELYLSWVVEARRHILAILQDCPSLRPPIDHLCELLPRLQARYYSIASSSKVHPNSVHICAVVVEYETKAGRINKGVATNWLRAKEPAGENGGRALVPMFVRKSQFRLPFKATTPVIMVGPGTGVAPFIGFIQERAWLRQQGKEVGETLLYYGCRRSDEDYLYREELAQFHRDGALTQLNVAFSREQSHKVYVQHLLKQDREHLWKLIEGGAHIYVCGDARNMARDVQNTFYDIVAELGAMEHAQAVDYIKKLMTKGRYSLDVWSHDEL
modifications: delN2hRD-HDEL
notes: human P450 reductase lacking the 54-amino acid membrane anchoring region, with C-terminal yeast ER retention signal HDEL

Key:
Type in all cases: biochemical
[1] = MTT-based cytochrome P450 reductase assay on yeast microsomes; conditions: relative to hRD = 1; 100 μg yeast microsomes, A610
Text: The enzyme NADPH-cytochrome P450 reductase mediates the transfer of electrons from NADPH to cytochrome P450, other microsomal proteins and cytochrome c. It also catalyses the reduction of many drugs and other compounds such as potassium ferricyanide, 2,6-dichloroindopheonl, 1,1-diphenyl-2-picrylhydrazyl (DPPH), and mitomycin c. Tetrazolium salts are used extensively in cell proliferation and cytotoxicity assays, enzyme assays, histochemical procedures and bacteriological screening. […] The compound 3-(4,5-dimethylthiazol-2-yl)-2,5-diphenyltetrazolium bromide (MTT) is a monotetrazolium salt. The reduction of MTT is one of the most frequently used methods for measuring cell proliferation and cytotoxicity. Reduction of MTT by P450 reductase has been assessed as a method for monitoring yeast produced recombinant P450 reductase activity and the protocol was developed on the procedure published by Yim S-K, et al (Yim S-K., Y. C.-H. Ahn T., Hung H-C and Pan J-G. A continuous Spectrophotometric assay for NADPH-cytochrome P450 reductase activity using 3-(4,5 Dimethylthiazol-2-yl)-2,5-diphenyltetrazolium Bromide. Journal of Biology and Molecular Biology 38: 366-369, 2005). The principal advantage of this substance is that the reduction of MTT can be assayed directly in the reaction medium by a continuous spectrophotometirc method. The electrons released from NADPH by P450 reductase are transferred to MTT, and then the amounts of reduced MTT is assessed spectrophotometrically by measuring the increase in A610 values that is due to the formation of blue formazan. The extinction coefficient of MTT is 11.3 mM^−1 cm^−1. This method offers the advantages of short analysis time with the use of a relatively cheap commercial substrate. The classical assay uses recombinant cytochrome c as a substrate. […]
Disposable cuvettes were used for this experiment. […] The cuvette was quickly placed into the spectrophotometer together with the blank cuvette and its contents (that contained all components as in the other test cuvette but not the microsomes or cell supernatant) and the increase in the values at 610 nm was measured for a time period of 400 seconds. The electrons released from NADPH by recombinant P450 reductase enzyme were transferred to MTT, and the ability to reduce MTT was assessed spectrophotometrically by measuring the increase in A610 values as a result of the formation of blue formazan. The rate of MTT reduction was calculated from the change in A610 values using an extinction coefficient of 11.3 mM^−1 cm^−1 and the formula, ΔA610/min/11.3*0.1 mg/ml=μmole reduced MTT/min/mg of protein.

CYP2D6 = target: T2, CYP2D6 (Homo sapiens, UniProt P10635, V374M)
T2 construct: A 1506 bp BamHI-XbaI fragment containing the human CYP2D6 gene; made in house; host or cells: Saccharomyces cerevisiae W303B, microsomes

CYP1A2 = target: T1, CYP1A2

T2 sequence (P10635 whole entry V374M, the tested form may be a part): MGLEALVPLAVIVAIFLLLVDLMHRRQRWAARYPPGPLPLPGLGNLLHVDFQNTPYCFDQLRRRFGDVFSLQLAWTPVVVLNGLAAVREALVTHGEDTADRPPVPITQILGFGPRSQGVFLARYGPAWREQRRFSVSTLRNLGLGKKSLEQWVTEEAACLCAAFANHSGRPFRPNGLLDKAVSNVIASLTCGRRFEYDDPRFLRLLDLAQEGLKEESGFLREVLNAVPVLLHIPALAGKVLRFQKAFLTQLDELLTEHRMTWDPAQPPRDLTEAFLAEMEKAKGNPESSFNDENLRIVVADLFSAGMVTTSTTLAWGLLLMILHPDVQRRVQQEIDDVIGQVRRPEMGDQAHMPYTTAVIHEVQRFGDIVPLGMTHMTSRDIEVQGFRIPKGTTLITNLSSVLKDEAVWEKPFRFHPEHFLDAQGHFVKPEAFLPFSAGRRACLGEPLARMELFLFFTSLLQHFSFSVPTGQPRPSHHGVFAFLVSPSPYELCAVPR

Row | Molecule | μM of reduced MTT/min/mg of protein (Relative Rates) [1] | pmoles of CYP2D6/mg of total protein (Relative Amounts) (CYP2D6) | pmoles of CYP1A2/mg of total protein (Relative Amounts) (CYP1A2)
1 | B1 | 1 | 1 | 1
2 | B2 | 3 ± 10% | 6 ± 10% | 6 ± 10%
3 | B3 | 2.5 ± 10% | 4 ± 10% | 4 ± 10%
4 | B4 | 3.5 ± 10% | 6 ± 10% | 6 ± 10%
